Reference: US20240083986A1 (published 2024)

Legend:
[1] = biological target: T1, CHO produced recombinant Bet v 1 containing a S85A mutation with a C-terminal myc-myc hexahistidine tag … (Betula verrucosa (birch)); test: SPR, mAb captured via anti-hFc, 25 C
T1 chain: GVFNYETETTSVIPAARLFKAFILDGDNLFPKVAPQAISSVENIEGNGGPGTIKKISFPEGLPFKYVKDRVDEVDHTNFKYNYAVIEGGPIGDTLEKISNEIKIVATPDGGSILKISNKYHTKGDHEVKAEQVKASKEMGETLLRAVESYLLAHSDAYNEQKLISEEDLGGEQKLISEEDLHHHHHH

[2] = biological target: T2, Celery (Api g 1, MyBiosource, Cat #MBS1171376) (Celery, UniProt P49372 1-154, limits assumed); test: SPR, mAb captured via anti-hFc, 25 C;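 note: Anti-Bet v 1 monoclonal antibodies probed on a Biacore 4000 in HBS-ET buffer at pH 7.4, rate constants fitted to a 1:1 model with mass transport limitation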
T2 construct: Bought reagent
T2 sequence (looked up): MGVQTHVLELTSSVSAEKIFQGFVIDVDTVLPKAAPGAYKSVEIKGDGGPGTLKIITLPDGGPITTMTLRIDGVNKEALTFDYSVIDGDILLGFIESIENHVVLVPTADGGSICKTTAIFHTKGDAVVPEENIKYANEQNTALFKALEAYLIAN

[3] = biological target: T3, European Hornbeam (Car b 1 isoform 1A & 1B, MyBiosource, Cat #MBS1200018) (European Hornbeam, UniProt P38949 2-160); test: SPR, mAb captured via anti-hFc, 25 C
T3 construct: Bought reagent
T3 sequence (looked up): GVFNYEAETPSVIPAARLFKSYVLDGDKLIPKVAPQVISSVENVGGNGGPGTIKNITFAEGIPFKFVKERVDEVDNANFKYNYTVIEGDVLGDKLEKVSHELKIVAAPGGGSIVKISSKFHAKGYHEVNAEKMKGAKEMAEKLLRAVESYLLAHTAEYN

[4] = biological target: T4, European Hornbeam (Car b 1 isoform 2, MyBiosource, Cat #MBS1043940) (European Hornbeam, UniProt P38950 2-160, limits assumed); test: SPR, mAb captured via anti-hFc, 25 C;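 note: related allergen binding to captured purified monoclonal antibodies, rate constants fitted to a one-to-one model with mass transport limitation, KD and t½ calculated from the rates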
T4 construct: Bought reagent
T4 sequence (looked up): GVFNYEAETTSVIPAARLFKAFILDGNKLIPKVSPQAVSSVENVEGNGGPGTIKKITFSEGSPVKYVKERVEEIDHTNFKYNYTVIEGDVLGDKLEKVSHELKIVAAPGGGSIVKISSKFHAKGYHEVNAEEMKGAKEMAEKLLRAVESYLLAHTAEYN

[5] = biological target: T1, CHO produced recombinant Bet v 1 …; test: SPR, mAb captured via anti-hFc, 37 C
[6] = biological target: T5, Apple (Mal d 1, MyBiosource, Cat #MBS1224919) (Apple, UniProt P43211 2-159, limits assumed); test: SPR, mAb captured via anti-hFc, 25 C;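 note: biacore 4000 SPR, related allergen binding to purified anti-Bet v 1 mAbs, HBS-ET running buffer pH 7.4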
T5 construct: Bought reagent
T5 sequence (looked up): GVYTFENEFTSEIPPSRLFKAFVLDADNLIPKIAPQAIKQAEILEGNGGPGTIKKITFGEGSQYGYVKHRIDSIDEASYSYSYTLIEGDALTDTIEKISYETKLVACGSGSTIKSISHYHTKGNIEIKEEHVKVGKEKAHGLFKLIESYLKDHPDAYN

[7] = biological target: T6, Alder (Aln g 1, MyBiosource, Cat #MBS1041484) (Alder, UniProt P38948 2-160, limits assumed); test: SPR, mAb captured via anti-hFc, 25 C
T6 construct: Bought reagent
T6 sequence (looked up): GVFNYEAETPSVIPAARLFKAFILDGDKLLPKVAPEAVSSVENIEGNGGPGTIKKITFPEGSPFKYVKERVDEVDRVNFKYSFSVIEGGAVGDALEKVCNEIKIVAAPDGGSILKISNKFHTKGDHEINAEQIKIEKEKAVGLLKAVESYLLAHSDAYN

B1: H4H17028P (antibody, human IgG4, V domains shown)
VH: QVQLVESGGGVVQPGRSLRLSCAASGFTFSRYAIHWVRQAPGKGLEWVAVISYDGDDKYYGDSVKGRFTISRDNSKTMVYLHMNSLRTEDTAVYYCAKDGYSLYGKDYFDYWGQGTLVTVSS
VL: EIVLTQSPGTLPLSPGERATLSCRASQSITNSYLAWYQQKPDQAPRLLIYGASSRATGIPDRFSGSESGTDFTLTISRLEPEDFAVYYCQQYVRSPWTFGQGTKVEIK
notes: Fully human antibody with human IgG4 Fc (H4H prefix)
100 nM natural Bet v 1- MMH Bound (RU) [1]: 71 RU | Kd [1]: 0.854 nM | koff [1]: 0.000693 s⁻¹ | kon [1]: 811000 M⁻¹ s⁻¹ | t½ [1]: 17 min | 100 nM Analyte Bound (RU) [2]: 1 RU | binding result [2]: no binding (tested: 100 nM) | 100 nM Analyte Bound (RU) [3]: 159 RU | Kd [3]: 2.43 nM | koff [3]: 0.000511 s⁻¹ | kon [3]: 210000 M⁻¹ s⁻¹ | t½ [3]: 23 min | 100 nM Analyte Bound (RU) [4]: 95 RU | Kd [4]: 45 nM | koff [4]: 0.00437 s⁻¹ | kon [4]: 97100 M⁻¹ s⁻¹ | t½ [4]: 2.6 min | 100 nM natural Bet v 1-MHH Bound (RU) [5]: 77 RU | Kd [5]: 2.32 nM | koff [5]: 0.00235 s⁻¹ | kon [5]: 1.01e+06 M⁻¹ s⁻¹ | t½ [5]: 4.9 min | 100 nM Analyte Bound (RU) [6]: 1 RU | binding result [6]: no binding (tested: 100 nM) | 100 nM Analyte Bound (RU) [7]: 16 RU | Kd [7]: 36.7 nM | koff [7]: 0.0019 s⁻¹ | kon [7]: 51700 M⁻¹ s⁻¹ | t½ [7]: 6.1 min

B2: H4H17031P (antibody, human IgG4, V domains shown)
VH: QVQLQQWGAGLLKPSETLSLTCVVYGESFGNYHWNWIRQSPGKRLEWIGEINQNGHTNYNPSLKSRVTISVDTSKIQFSLRLNSVTAADTAVYFCARGHNYVNSYFGLDVWGQGTTVTVSS
VL: EIVMTQSPATLSVSPGERATLSCRTSQSVSISLAWYQRKPGQAPRLLIFGSSTRATGVPARFSGSGSGTEFTLTISSLQSEDFAVYYCQQYNNWPYTFGQGTKLEIK
notes: as for B1
100 nM natural Bet v 1- MMH Bound (RU) [1]: 63 RU | Kd [1]: 5.61 nM | koff [1]: 0.00105 s⁻¹ | kon [1]: 187000 M⁻¹ s⁻¹ | t½ [1]: 11 min | 100 nM Analyte Bound (RU) [2]: 0 RU | binding result [2]: no binding (tested: 100 nM) | 100 nM Analyte Bound (RU) [3]: 126 RU | Kd [3]: 13.8 nM | koff [3]: 0.00111 s⁻¹ | kon [3]: 80400 M⁻¹ s⁻¹ | t½ [3]: 10 min | 100 nM Analyte Bound (RU) [4]: 160 RU | Kd [4]: 13.1 nM | koff [4]: 0.00517 s⁻¹ | kon [4]: 395000 M⁻¹ s⁻¹ | t½ [4]: 2.2 min | 100 nM natural Bet v 1-MHH Bound (RU) [5]: 71 RU | Kd [5]: 14.6 nM | koff [5]: 0.00406 s⁻¹ | kon [5]: 278000 M⁻¹ s⁻¹ | t½ [5]: 2.8 min | 100 nM Analyte Bound (RU) [6]: 0 RU | binding result [6]: no binding (tested: 100 nM) | 100 nM Analyte Bound (RU) [7]: 59 RU | Kd [7]: 45 nM | koff [7]: 0.00238 s⁻¹ | kon [7]: 52900 M⁻¹ s⁻¹ | t½ [7]: 4.8 min

B3: H4H17033P (antibody, human IgG4, V domains shown)
VH: QVQLVQSGAEVKKPGASVKVSCKASGYTFAAHYMHWVRQAPGQGLEWMGWINTYTGGTNYGQKFQGRVTMTRDTSITTAYMELSRLRSDDTAVYYCARDRRNWNFVFEYWGQGTLVTVSS
VL: DIQMTQSPSSLSASVGDRVTISCRASQNIKNYLNWYQQKPGKAPKLLIYEASNLQSGAPSRFSGSGSGTDFTLTISSLEPEDFATYYCQQSFSIPWTFGQGTKVEIK
notes: as for B1
100 nM natural Bet v 1- MMH Bound (RU) [1]: 67 RU | Kd [1]: 0.768 nM | koff [1]: 0.000415 s⁻¹ | kon [1]: 540000 M⁻¹ s⁻¹ | t½ [1]: 28 min | 100 nM Analyte Bound (RU) [2]: 39 RU | Kd [2]: 167 nM | koff [2]: 0.0791 s⁻¹ | kon [2]: 475000 M⁻¹ s⁻¹ | t½ [2]: 0.2 min | 100 nM Analyte Bound (RU) [3]: 0 RU | binding result [3]: no binding (tested: 100 nM) | 100 nM Analyte Bound (RU) [4]: 111 RU | Kd [4]: 33.4 nM | koff [4]: 0.0447 s⁻¹ | kon [4]: 1.34e+06 M⁻¹ s⁻¹ | t½ [4]: 0.3 min | 100 nM natural Bet v 1-MHH Bound (RU) [5]: 79 RU | Kd [5]: 1.34 nM | koff [5]: 0.00118 s⁻¹ | kon [5]: 883000 M⁻¹ s⁻¹ | t½ [5]: 9.8 min | 100 nM Analyte Bound (RU) [6]: 1 RU | binding result [6]: no binding (tested: 100 nM) | 100 nM Analyte Bound (RU) [7]: 3 RU | binding result [7]: no binding (tested: 100 nM)

B4: H4H17038P2 (antibody, human IgG4 S228P, kappa, V domains shown)
VH: EVQLVESGGDLVQPGGSLRLSCAASGFTFSSYEMNWVRQAPGKGLEWVSFISDSSSNIYYADSVKGRFTISRDNAKKSLYLQMTSLRAEDTAVYYCAREAIGSTSFDNWGQGTLVTVSS
VL: EIVMTQSPATLSVSPGERATLSCRASQSVSSSLAWYQQKPGQAPRRLIYSASTRATGIPARFSGSGSGTEFTLTISSLQSEDFAIYYCHQYNNWPLTFGGGTKVEIKR
notes: human IgG4 Fc; also called REGN5714; MAB3
100 nM natural Bet v 1- MMH Bound (RU) [1]: 63 RU | Kd [1]: 9.98 nM | t½ [1]: 1.8 min | 100 nM Analyte Bound (RU) [2]: -1 RU | 100 nM Analyte Bound (RU) [3]: 105 RU | Kd [3]: 41.4 nM | t½ [3]: 1.9 min | Kd [4]: 50.5 nM | t½ [4]: 1.8 min | 100 nM natural Bet v 1-MHH Bound (RU) [5]: 56 RU | Kd [5]: 35.6 nM | t½ [5]: 0.39 min | 100 nM Analyte Bound (RU) [6]: -1 RU | 100 nM Analyte Bound (RU) [7]: 2 RU | binding result [7]: no binding (tested: 100 nM)

B5: H4H17045P2 (antibody, human IgG4, V domains shown)
VH: EVQLVESGGGLVQPGVSLRLSCVASGFTFSNYDITWIRQIPGKGLEWVSRISGSGGSTYFADSVKGRFIISRDNSKNTVYMQMNSLRAEDSAVYYCARRDSVLFSMNSWLDPWGQGTLVTVSS
VL: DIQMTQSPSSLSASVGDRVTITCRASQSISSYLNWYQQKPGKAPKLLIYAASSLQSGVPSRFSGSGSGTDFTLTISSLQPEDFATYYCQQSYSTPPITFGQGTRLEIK
notes: as for B1
100 nM natural Bet v 1- MMH Bound (RU) [1]: 60 RU | Kd [1]: 6.23 nM | koff [1]: 0.000498 s⁻¹ | kon [1]: 80000 M⁻¹ s⁻¹ | t½ [1]: 23 min | 100 nM Analyte Bound (RU) [2]: 0 RU | binding result [2]: no binding (tested: 100 nM) | 100 nM Analyte Bound (RU) [3]: 5 RU | binding result [3]: no binding (tested: 100 nM) | 100 nM Analyte Bound (RU) [4]: 5 RU | binding result [4]: no binding (tested: 100 nM) | 100 nM natural Bet v 1-MHH Bound (RU) [5]: 84 RU | Kd [5]: 14.3 nM | koff [5]: 0.00232 s⁻¹ | kon [5]: 162000 M⁻¹ s⁻¹ | t½ [5]: 5 min | 100 nM Analyte Bound (RU) [6]: -1 RU | 100 nM Analyte Bound (RU) [7]: 0 RU | binding result [7]: no binding (tested: 100 nM)

B6: H4H17067P2 (antibody, human IgG4, V domains shown)
VH: EVQLVQSGAEVKKPGESLKISCSGSGYRFTNYWIAWVRQMPGKGLEWMGLIHPDDSDIRYSPSFQGQVTFSVDKSINTAYLQWSSLKASDTAMYYCTRQDGILWSHNAWFDPWGQGTLVTVSS
VL: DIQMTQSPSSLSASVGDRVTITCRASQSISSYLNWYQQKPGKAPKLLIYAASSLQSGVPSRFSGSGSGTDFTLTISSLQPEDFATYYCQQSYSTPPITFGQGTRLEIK
notes: as for B1
100 nM natural Bet v 1- MMH Bound (RU) [1]: 55 RU | Kd [1]: 11.7 nM | koff [1]: 0.00117 s⁻¹ | kon [1]: 100000 M⁻¹ s⁻¹ | t½ [1]: 9.9 min | 100 nM Analyte Bound (RU) [2]: 0 RU | binding result [2]: no binding (tested: 100 nM) | 100 nM Analyte Bound (RU) [3]: 0 RU | binding result [3]: no binding (tested: 100 nM) | 100 nM Analyte Bound (RU) [4]: 1 RU | binding result [4]: no binding (tested: 100 nM) | 100 nM natural Bet v 1-MHH Bound (RU) [5]: 76 RU | Kd [5]: 16.9 nM | koff [5]: 0.00428 s⁻¹ | kon [5]: 253000 M⁻¹ s⁻¹ | t½ [5]: 2.7 min | 100 nM Analyte Bound (RU) [6]: -1 RU | 100 nM Analyte Bound (RU) [7]: 2 RU | binding result [7]: no binding (tested: 100 nM)
